For this experiment, the target named is T1, natural Fel d 1 (Felis catus, UniProt P30438;P30440).
T1 construct: Fel d 1 Chain 1, cat, of the natural Fel d 1 heterodimer; Fel d 1 Chain 2, cat, of the natural Fel d 1 heterodimer; also called nFel d 1; source: bought: Indoor Biotech, Catalog #LTN-FD-1
Briefly: SPR; Biacore T200; REGN1909 (94-163 RU) captured on a goat anti-human Fcγ coupled surface; nFel d 1 or rFel d 1.mmh injected in 2-fold dilutions; 10 mM HEPES, 150 mM NaCl, 3 mM MgCl2, 3 mM CaCl2, 0.05% P20, pH 7.4; 1:1 binding model with mass transport limitation. The settings on record: both partners purified.

B1: REGN1909 (antibody, V domains shown)
VH: EVQLVESGGGLVQPGGSLRLSCAASGFTFSSYAMSWVRQAPGKGLEWVSAISGRGYNADYADSVKGRFTISRDNSKNTLYLQMNSLRAEDTAVYYCAKLEYFDYWGQGTLVTVSS
VL: DIQMTQSPSTLSASVGDRVTITCRASQSISSWLAWYQQKPGKAPKLLIYKASSLESGVPSRFSGSGSGTDFTLTISSLRPEDFATYYCQQYNSYPLTFGGGTKVEIK
As for B1, the binding result is given as “binds”.
